Test results taken from patent US20190225680A1 (NASCIENT, published 2019).
Where a chain is given by its changes, count along the chain named.

B1: 165_13_C3 IgG4 (antibody, V domains shown)
VH: QVQLVESGGGLVQPGRSLRLSCAASGFTFDDYAMHWVRQAPGKGLEWVSGISGSGGSTYYADSVKGRFTISRDNAKNSLYLQMNSLRAEDTALYYCAKSYQSDEDAFDIWGQGTMVTVSS
VL: DIQMTQSPASLPTPVGDRVTITCRASQYIQGFLNWYQQKPGKAPKLLIYDASNLETGVPSRFSGSGSGTDFTLTISSLQPEDFATYYCQQSYSTPQTFGQGTKVDIKR
B2: B12 Fab (Fab, V domains shown)
VH: B1 VH with S99D, Y100I, Q101S, S102A, D103V, E104P, A106T
VL: B1 VL
notes: Monomeric Fab from a dual promoter Fab vector; also called B12 parental antibody

What was measured:
[1] = biological target: T1, human TNR rCd4-His-FBG (rat; human); test: SPR, 37 C, purified IgG4 captured on anti-human Fc
T1 sequence: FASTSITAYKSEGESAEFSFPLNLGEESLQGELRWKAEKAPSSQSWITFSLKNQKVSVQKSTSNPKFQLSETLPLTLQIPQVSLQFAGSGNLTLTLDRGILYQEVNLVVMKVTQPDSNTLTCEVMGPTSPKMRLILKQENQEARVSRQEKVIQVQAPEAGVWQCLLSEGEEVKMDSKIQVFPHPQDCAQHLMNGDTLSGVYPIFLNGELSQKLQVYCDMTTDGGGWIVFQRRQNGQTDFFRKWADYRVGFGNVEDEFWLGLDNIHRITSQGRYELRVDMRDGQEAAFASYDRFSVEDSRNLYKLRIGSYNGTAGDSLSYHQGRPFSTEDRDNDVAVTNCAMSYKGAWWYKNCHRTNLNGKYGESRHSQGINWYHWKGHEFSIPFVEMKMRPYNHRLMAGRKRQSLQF

[2] = biological target: T1, human TNR rCd4-His-FBG (rat; human); test: SPR off-rate screen, 25 C, IgG4 from supernatant captured on anti-human Fc, 100 nM antigen, 1:1 fit
mouse TNC rCd4-His-FBG [3] = biological target: T2, mouse TNC rCd4-His-FBG (rat; mouse, UniProt P05540 207-386); test: SPR, BIAcore T100, 37 C, IgG4 captured on anti-human Fc, rCD4-His-FBG injected, 1:1 fit
T2 construct: domain: domains 3 and 4; also called Mu TNC; mouse TNC FBG
T2 sequence: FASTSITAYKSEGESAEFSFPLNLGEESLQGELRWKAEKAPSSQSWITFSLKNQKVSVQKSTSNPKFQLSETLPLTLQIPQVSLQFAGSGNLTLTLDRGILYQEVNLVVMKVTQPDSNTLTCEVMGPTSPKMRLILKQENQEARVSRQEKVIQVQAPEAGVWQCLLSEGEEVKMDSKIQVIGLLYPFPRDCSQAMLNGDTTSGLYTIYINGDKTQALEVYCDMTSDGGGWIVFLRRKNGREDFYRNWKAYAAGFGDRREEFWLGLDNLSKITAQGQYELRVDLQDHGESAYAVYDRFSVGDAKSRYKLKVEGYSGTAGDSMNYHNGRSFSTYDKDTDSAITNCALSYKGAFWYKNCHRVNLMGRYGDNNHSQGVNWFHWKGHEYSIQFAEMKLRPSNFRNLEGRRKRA

[4] = biological target: T1, human TNR rCd4-His-FBG (rat; human); test: as above
[5] = biological target: T3, dog TNC rCD4-His-FBG (rat; dog); test: as above
T3 sequence: T2 sequence with I209L, T214A, S269H, Q284R, E288K, S289T, S304T, N322A, Y332F

[6] = biological target: T4, human TNC rCd4-His-FBG (rat; human); test: as above
T4 sequence: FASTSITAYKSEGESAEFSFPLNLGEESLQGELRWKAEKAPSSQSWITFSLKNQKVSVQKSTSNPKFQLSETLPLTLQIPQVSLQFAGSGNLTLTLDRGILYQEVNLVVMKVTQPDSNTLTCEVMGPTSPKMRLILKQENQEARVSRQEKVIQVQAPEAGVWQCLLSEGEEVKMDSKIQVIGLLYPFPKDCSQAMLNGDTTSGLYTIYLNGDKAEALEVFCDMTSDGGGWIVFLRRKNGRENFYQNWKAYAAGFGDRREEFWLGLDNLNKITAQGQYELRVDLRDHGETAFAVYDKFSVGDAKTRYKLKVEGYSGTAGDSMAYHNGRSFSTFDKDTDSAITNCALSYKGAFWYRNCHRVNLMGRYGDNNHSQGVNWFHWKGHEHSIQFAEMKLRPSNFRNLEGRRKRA

[7] = biological target: T5, rat TNC rCd4-His-FBG (rat) (UniProt P05540); test: as above
T5 sequence: T2 sequence with A252T

mouse TNC rCd4-His-FBG [8] = biological target: T2, mouse TNC rCd4-His-FBG; test: SPR off-rate screen, 25 C, IgG4 from supernatant captured on anti-human Fc, 15 nM antigen, 1:1 fit
human TNR rCd4-His-FBG = biological target: T6, human TNR rCd4-His-FBG (rat; human, UniProt P05540 207-386); test: SPR, BIAcore T100, 25 C, Fab captured, rCd4-FBG injected
T6 construct: domain: domains 3 and 4; also called Hu TNR; human TNR FBG
T6 sequence: T1 sequence
Method: Experiments were performed using a BIAcore T100 instrument with CM5 sensor chip according to the protocol provided with the Human Fab Capture Kit (GE, 28-9583-25). Varying concentrations of rCd4-FBG were injected into a flow-cell with immobilised Fab and a reference flow-cell. After reference signal subtraction, the data was fitted to a global 1:1 fit using theT100 BIAevaluation software.

Binder | fold lower affinity for human TNR FBG than for human TNC FBG [1] | koff [2] | Kd (mouse TNC rCd4-His-FBG [3]) | koff (mouse TNC rCd4-His-FBG [3]) | kon (mouse TNC rCd4-His-FBG [3]) | Kd [4] | koff [4] | kon [4] | Kd [5] | koff [5] | kon [5] | Kd [6] | koff [6] | kon [6] | Kd [7] | koff [7] | kon [7] | koff (mouse TNC rCd4-His-FBG [8]) | fold lower affinity for human TNR FBG than for human TNC FBG (human TNR rCd4-His-FBG)
B1 | > 70 fold | 0.012 s⁻¹ | 0.46 nM | 0.000445 s⁻¹ | 972000 M⁻¹ s⁻¹ | 35.8 nM | 0.0431 s⁻¹ | 1.2e+06 M⁻¹ s⁻¹ | 1.8 nM | 0.0108 s⁻¹ | 5.97e+06 M⁻¹ s⁻¹ | 0.072 nM | 0.00083 s⁻¹ | 1.16e+07 M⁻¹ s⁻¹ | 1.22 nM | 0.00473 s⁻¹ | 3.89e+06 M⁻¹ s⁻¹ | 3.3e-06 s⁻¹ | 
B2 |  |  |  |  |  |  |  |  |  |  |  |  |  |  |  |  |  |  | > 60 fold
